From patent publication US20250368752A1 (AMPSOURCE BIOPHARMA SHANGHAI, published 2025)

Tests used:
human TFPI protein = biological target: T1, human TFPI protein (human, UniProt P10646 29-282, limits assumed); assay: ELISA, human TFPI coated at 0.1 ug/mL, HRP goat anti-human IgG detection
T1 construct: Soluble human TFPI, coated on ELISA plates (6.1) and used in solution in the FXa and TF/FVIIa/FX assays (6.2, 6.3)
T1 sequence (looked up): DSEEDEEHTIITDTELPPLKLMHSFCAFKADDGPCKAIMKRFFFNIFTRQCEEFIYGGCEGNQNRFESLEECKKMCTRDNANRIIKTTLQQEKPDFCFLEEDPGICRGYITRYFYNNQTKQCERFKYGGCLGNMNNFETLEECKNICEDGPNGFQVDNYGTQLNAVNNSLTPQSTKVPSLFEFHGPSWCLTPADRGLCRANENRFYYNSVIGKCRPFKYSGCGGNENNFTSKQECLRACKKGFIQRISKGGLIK
Experimental: Human TFPI was coated onto the ELISA plate at a concentration of 0.1 μg/mL, with 100 μL per well, and incubated overnight at 4° C. The coating solution was then discarded, and the wells were blocked with 200 μL of PBS solution containing 1% BSA (PBSB) per well at 37° C. for 1 hour. The plate was washed with PBS solution containing 0.05% Tween-20 (PBST). A series of diluted concentrations of AB8D were added, with 100 μL per well, and incubated for 1 hour at 37° C. The plates were washed with PBST, and then HRP-labeled goat anti-human IgG (H+L) (Jackson Laboratory) was added as the detection antibody, with incubation for 1 hour at 37° C. After washing three times with 0.05% PBST, TMB was added, with 100 μL per well, and the color was developed at room temperature for 5 minutes. The reaction was terminated by adding 0.2 M H₂SO₄, with 50 μL per well. The absorbance values were read at dual wavelengths of 450/620 nm using a microplate reader. Using OD450 nm-OD620 nm as the Y-axis and antibody concentration as the X-axis, the data were analyzed using GraphPad Prism 6 software with a four-parameter logistic curve fitting to calculate the EC₅₀ value.

[1] = biological target: TFPI expressed on HUVECs (human) (UniProt P10646); assay: cell-based or functional assay
[2] = biological target: TFPI expressed on HUVECs (human) (UniProt P10646); assay: flow cytometry on HUVEC cells, AF647 goat anti-human IgG detection
[3] = biological target: T2, human TFPI with a His tag (human, UniProt P10646 29-282, limits assumed); assay: BLI (ForteBio Octet), His-tagged human TFPI on Ni-NTA sensors, antibody 3.125-100 nM
T2 construct: Coupled to Ni-NTA sensors at 10 ug/mL for BLI; not shown: His tag
T2 sequence (looked up): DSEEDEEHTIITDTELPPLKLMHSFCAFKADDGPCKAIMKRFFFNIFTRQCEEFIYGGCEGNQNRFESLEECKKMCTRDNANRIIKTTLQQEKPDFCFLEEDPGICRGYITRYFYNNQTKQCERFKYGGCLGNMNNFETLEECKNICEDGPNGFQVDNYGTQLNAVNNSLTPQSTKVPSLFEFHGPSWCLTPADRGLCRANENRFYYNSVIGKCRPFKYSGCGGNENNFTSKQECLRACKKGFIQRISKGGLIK
Experimental: The binding affinity constant of the purified mouse monoclonal antibody against human TFPI (mAb3-71) to human TFPI was determined using biolayer interferometry (BLI) with the ForteBio Octet RED&QK system from PALL Corporation. The concentration gradient for multi-channel parallel quantitative analysis was set to 3.125, 6.25, 12.5, 25, 50, and 100 nM, and human TFPI with a His tag at 10 μg/mL was coupled to Ni-NTA sensors.

Binder	EC50 (human TFPI protein) [µg/mL]	neutralization of TFPI on HUVEC cells (FVIIa/FX added, S-2765, OD405 nm) [1] [ng/mL]	EC50 [2] [µg/mL]	Kd [3] [pM]	koff [3] [s⁻¹]	kon [3] [M⁻¹ s⁻¹]
humanized anti-human TFPI antibody AB8D (antibody, V domains shown, Full-length humanized IgG of about 145 kD, expressed in CHO cells) VH: EVQLVQSGAELKKPGASVKLSCKASGYTFTSYWMHWVRQTPGQGLEWIGEIKPDQGRINYNEKFKTRATLTADKSTSTAYMELSSLRSEDTAVYYCARSSVVDVAMDYWGQGTTVTVSS VL: EIVLTQSPATLSLSPGERATLSCSASSSVSSSYLYWYQQKPGQAPRLWISGTSILASGVPARFSGSGSGTKYTLTISSLEPEDFAVYFCHQWSHYPFTFGQGTKLEIK	0.00165	117	0.0286			
mouse monoclonal antibody against human TFPI, mAb3-71 (antibody, V domains shown, also called hybridoma cell line #3-71) VH: QVQLQQPEAELMKPGASVKLSCKASGYTFTSYWMHWVKQRPGQGLEWIGEIKPDNGRINYNEKFKTKATLAVDKSSSTAYMQLNSLTSGDSAVYYCARSSVVDVAMDYWGQGTSVSVSS VL: QIVLTQSPAIMSASPGEKVTLTCSASSSVSSSYLYWYQQKPGSSPKLWISGTSILASGVPARFSGSGSGTSYSLTISSMEAEDTASYFCHQWSHYPFTFGSGTKLEIK				4.54	1.31e-06	289000
